Experimental data as given in patent publication US20140087995A1 (published 2014).
Numbered stars: 1 amine (or outer) side, 2 acyl side, 3 side chain; on linkers, the order of the positions; unused ones are H or OH. Bridge positions count the residues as written; N and C are the ends. * marks the point of attachment. C20 diacid = O=C(O)CCCCCCCCCCCCCCCCCCC(=O)*; γGlu = O=C(O)[C@H](CCC(=O)[*:2])N[*:1]

T1: rat calcitonin receptor (rat, UniProt P32214 25-516)
T1 construct: whole, on cells; Membranes of BHK tk'ts 13 cells transiently transfected with the rat calcitonin receptor; also called rCTR; rat calcitonin (a) receptor
T1 sequence (looked up): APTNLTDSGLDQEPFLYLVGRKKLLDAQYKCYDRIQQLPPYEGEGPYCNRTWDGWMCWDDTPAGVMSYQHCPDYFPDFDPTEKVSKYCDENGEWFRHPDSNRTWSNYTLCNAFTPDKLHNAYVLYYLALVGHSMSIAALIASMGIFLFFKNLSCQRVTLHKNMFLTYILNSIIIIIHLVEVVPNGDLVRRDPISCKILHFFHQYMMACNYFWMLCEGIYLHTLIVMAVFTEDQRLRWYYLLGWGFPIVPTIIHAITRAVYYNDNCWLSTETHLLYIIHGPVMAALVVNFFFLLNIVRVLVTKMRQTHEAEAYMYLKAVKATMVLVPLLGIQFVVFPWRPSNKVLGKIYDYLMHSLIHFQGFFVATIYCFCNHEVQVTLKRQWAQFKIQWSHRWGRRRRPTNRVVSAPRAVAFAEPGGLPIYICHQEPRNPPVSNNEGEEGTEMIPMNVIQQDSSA

T2: rat amylin receptor (rat calcitonin receptor + rat RAMP 3) (rat, UniProt P32214 25-516; Q9JJ73 23-147)
T2 construct: whole, on cells; Membranes of BHK tk'ts 13 cells transiently transfected with the rat calcitonin receptor and rat RAMP 3; also called rAmylin-R; rat amylin 3(a) receptor
T2 sequence (looked up) 1: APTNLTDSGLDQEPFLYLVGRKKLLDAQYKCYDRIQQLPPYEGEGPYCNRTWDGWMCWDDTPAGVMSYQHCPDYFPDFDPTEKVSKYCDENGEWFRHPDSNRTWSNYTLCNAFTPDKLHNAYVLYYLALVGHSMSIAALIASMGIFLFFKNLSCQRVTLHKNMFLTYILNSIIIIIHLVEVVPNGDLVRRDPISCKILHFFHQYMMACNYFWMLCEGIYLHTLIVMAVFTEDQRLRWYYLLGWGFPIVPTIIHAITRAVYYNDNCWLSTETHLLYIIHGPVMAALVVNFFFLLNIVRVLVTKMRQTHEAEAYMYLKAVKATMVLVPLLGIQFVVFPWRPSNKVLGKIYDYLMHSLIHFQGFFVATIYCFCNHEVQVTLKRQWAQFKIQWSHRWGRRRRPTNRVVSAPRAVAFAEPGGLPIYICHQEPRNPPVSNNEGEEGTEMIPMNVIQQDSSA
T2 sequence (looked up) 2: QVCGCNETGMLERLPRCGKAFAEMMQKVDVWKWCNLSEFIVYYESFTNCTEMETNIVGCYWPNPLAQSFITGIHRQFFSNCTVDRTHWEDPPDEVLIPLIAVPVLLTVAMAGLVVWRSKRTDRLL

T3: human calcitonin receptor (human, UniProt P30988 25-474)
T3 construct: whole, on cells; Membranes of a BHK tk'ts 13 cell line stably transfected with the human calcitonin receptor; also called hCTR; hCT
T3 sequence (looked up): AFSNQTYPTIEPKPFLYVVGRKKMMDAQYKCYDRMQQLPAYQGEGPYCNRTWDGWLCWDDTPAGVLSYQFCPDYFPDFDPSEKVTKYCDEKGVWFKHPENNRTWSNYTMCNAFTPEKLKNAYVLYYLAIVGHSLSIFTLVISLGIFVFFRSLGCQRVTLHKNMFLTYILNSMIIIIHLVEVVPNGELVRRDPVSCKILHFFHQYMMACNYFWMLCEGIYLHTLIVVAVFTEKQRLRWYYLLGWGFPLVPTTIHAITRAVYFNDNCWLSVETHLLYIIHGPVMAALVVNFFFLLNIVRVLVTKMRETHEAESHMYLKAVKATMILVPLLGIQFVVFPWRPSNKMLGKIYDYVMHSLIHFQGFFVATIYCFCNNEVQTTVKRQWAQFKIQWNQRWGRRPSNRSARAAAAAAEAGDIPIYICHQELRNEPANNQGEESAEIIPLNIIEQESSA


How the values were obtained:
rat calcitonin receptor [1] = target: T1, rat calcitonin receptor; assay: SPA competition vs 125I-calcitonin, membranes with rat CTR (Assay VIII)
rat calcitonin receptor [2] = target: T1, rat calcitonin receptor; assay: IC50 at rCTR divided by IC50 at rAmylin-R (reference)
[3] = target: T2, rat amylin receptor (rat calcitonin …); assay: SPA competition vs 125I-rat amylin, membranes with rat CTR + rat RAMP3 (Assay VI)
Protocol: The binding assay was performed using scintillation proximity assay (SPA) beads (RPNQ0001) from PerkinElmer and cell membranes from the Amylin 3(a)/CRE-luc cells (as described in Assay (II)) were used. Membranes were prepared in the following way; the cells were rinsed with PBS and incubated with Versene for approximately 5 min before harvesting. The cells were flushed with PBS and the cell-suspension was centrifuged for 5 min at 1000 rpm. Cells were homogenized (ultrathurrax) in a buffer containing 20 mM Na-HEPES and 10 mM EDTA (pH 7.4) and centrifuged at 20.000 rpm for 15 min. The resulting pellet was resuspended, homogenized and centrifuged (20.000 rpm, 15 min) in a buffer containing 20 mM Na-HEPES and 0.1 mM EDTA (pH 7.4, buffer 2). The resulting pellet was resuspended in buffer 2 and protein concentration was measured (BCA protein Assay, Pierce). The homogenate was kept cold during the whole procedure. The membranes were kept at −80° C. until use. The assay was performed in a 384 well Optiplate (PerkinElmer) in a total volume of 40 ul. Membranes were mixed with SPA beads. Final concentration of membranes 35 ng/μL final and SPA beads was 0.05 mg/well. Test-compounds were dissolved in DMSO and further diluted in assay buffer (50 mM Hepes, pH 7.4, 1 mM CaCl2, 5 mM MgCl₂, 0.1% OA and 0.02% Tween20). […] The final mixture was incubated with shaking at 400 rpm for 120 min at 25° C. prior to centrifugation (1500 rpm, 10 min). Samples were analyzed on TopCounter™ (Packard). The IC₅₀ was calculated using (one site binding competition analysis) GraphPad Prism5 as a measure of receptor affinity.
Cells were grown in DMEM with 10% FBS and 1% Pen/Strep. Approximately 48 hours after transfection, the cells were harvested and membranes were prepared.

[4] = target: T3, human calcitonin receptor; assay: IC50 at hCTR divided by IC50 at hAmylin-R (reference)
Protocol: The resulting pellet was resuspended, homogenized and centrifuged (20.000 rpm, 15 min) in a buffer containing 20 mM Na-HEPES and 0.1 mM EDTA (pH 7.4, buffer 2). The resulting pellet was resuspended in buffer 2 and protein concentration was measured (BCA protein Assay, Pierce). The homogenate was kept cold during the whole procedure. The membranes were kept at −80° C. until use. The assay was performed in a 384 well Optiplate (PerkinElmer) in a total volume of 40 ul. Membranes were mixed with SPA beads. Final concentration of membranes 35 ng/μL final and SPA beads was 0.05 mg/well. Test-compounds were dissolved in DMSO and further diluted in assay buffer (50 mM Hepes, pH 7.4, 1 mM CaCl2, 5 mM MgCl₂, 0.1% OA and 0.02% Tween20). […] The final mixture was incubated with shaking at 400 rpm for 120 min at 25° C. prior to centrifugation (1500 rpm, 10 min). Samples were analyzed on TopCounter™ (Packard). The IC₅₀ was calculated using (one site binding competition analysis) GraphPad Prism5 as a measure of receptor affinity.
Membranes were prepared in the following way; the cells were rinsed with PBS and incubated with Versene for approximately 5 min before harvesting. The cells were flushed with PBS and the cell-suspension was centrifuged for 5 min at 1000 rpm. Cells were homogenized (Ultrathurrax) in a buffer containing 20 mM Na-HEPES and 10 mM EDTA (pH 7.4) and centrifuged at 20.000 rpm for 15 min. The resulting pellet was resuspended, homogenized and centrifuged (20.000 rpm, 15 min) in a buffer containing 20 mM Na-HEPES and 0.1 mM EDTA (pH 7.4, buffer 2). The resulting pellet was resuspended in buffer 2 and protein concentration was measured (BCA protein Assay, Pierce). The homogenate was kept cold during the whole procedure. The membranes were kept at −80° C. until use. Assay was performed in a 384 well Optiplate (PerkinElmer) in a total volume of 40 ul. Membranes were mixed with SPA beads.

IC50 (rat calcitonin receptor [1]) [nM] | Ratio rCT/rAmylin binding (rat calcitonin receptor [2]) | IC50 [3] [nM] | Ratio hCT/hAmylin binding [4] | Binder
95.6 | 93.6 | 1.02 | 36.7 | KCNTATCATQRLAEFLRHSSPNFGAIPSSTNVGSNTY (C20 diacid-gGlu-2xOEG on the alpha amino group of the N-terminal residue (Lys 1); disulfide bridge Cys2-Cys7; C-terminal amide, modifications are with respect to human amylin; also called compound 19)
69.2 | 46.2 | 1.5 | 31.1 | KCNTATCATQRLANFLRHSSPNFGAIPSSTNVGHNTY (C20 diacid-gGlu on the alpha amino group of the N-terminal residue (Lys 1); disulfide bridge Cys2-Cys7; C-terminal amide, modifications are with respect to human amylin; also called compound 40) [N^α1-[(4S)-4-carboxy-4-(19-carboxynonadecanoylamino)butanoyl]-[Arg17,Pro21,Pro27,His34]-h-amylin]
54.9 | 44.9 | 1.22 | 20.5 | {C20 diacid-γGlu}-KCNTATCATQRLANFLRHSSPNFGAIPSSTPVGSETY-NH2 (disulfide 2-7; SMILES CC[C@H](C)[C@H](NC(=O)[C@H](C)NC(=O)CNC(=O)[C@H](Cc1ccccc1)NC(=O)[C@H](CC(N)=O)NC(=O)[C@@H]1CCCN1C(=O)[C@H](CO)NC(=O)[C@H](CO)NC(=O)[C@H](Cc1c[nH]cn1)NC(=O)[C@H](CCCNC(=N)N)NC(=O)[C@H](CC(C)C)NC(=O)[C@H](Cc1ccccc1)NC(=O)[C@H](CC(N)=O)NC(=O)[C@H](C)NC(=O)[C@H](CC(C)C)NC(=O)[C@H](CCCNC(=N)N)NC(=O)[C@H](CCC(N)=O)NC(=O)[C@@H](NC(=O)[C@H](C)NC(=O)[C@@H]1CSSC[C@H](NC(=O)[C@H](CCCCN)NC(=O)CC[C@H](NC(=O)CCCCCCCCCCCCCCCCCCC(=O)O)C(=O)O)C(=O)N[C@@H](CC(N)=O)C(=O)N[C@@H]([C@@H](C)O)C(=O)N[C@@H](C)C(=O)N[C@@H]([C@@H](C)O)C(=O)N1)[C@@H](C)O)C(=O)N1CCC[C@H]1C(=O)N[C@@H](CO)C(=O)N[C@@H](CO)C(=O)N[C@H](C(=O)N1CCC[C@H]1C(=O)N[C@H](C(=O)NCC(=O)N[C@@H](CO)C(=O)N[C@@H](CCC(=O)O)C(=O)N[C@H](C(=O)N[C@@H](Cc1ccc(O)cc1)C(N)=O)[C@@H](C)O)C(C)C)[C@@H](C)O, modifications are with respect to human amylin; also called compound 28)
96.4 | 54.5 | 1.77 | 29 | KCNTATCATQRLANFLRHSSPNFGAIPSSTNVGRNTY (C20 diacid-gGlu on the alpha amino group of the N-terminal residue (Lys 1); disulfide bridge Cys2-Cys7; C-terminal amide, modifications are with respect to human amylin; also called compound 39) [N^α1-[(4S)-4-carboxy-4-(19-carboxynonadecanoylamino)butanoyl]-[Arg17,Pro21,Pro27,Arg34]-h-amylin]
79.9 | 71.3 | 1.12 | 25 | KCNTATCATQRLANFLRHSSPNFGAIPSSTNVGSETY (C20 diacid-gGlu on the alpha amino group of the N-terminal residue (Lys 1); disulfide bridge Cys2-Cys7; C-terminal amide, modifications are with respect to human amylin; also called compound 23) [N^α1-[(4S)-4-carboxy-4-(19-carboxynonadecanoylamino)butanoyl]-[Arg17,Pro21,Pro27,Glu35]-h-amylin]
89.2 | 52 | 1.72 | 64.4 | KCNTATCATQRLANFLRHSSPNFGAIPSSTNVGSKTY (C20 diacid-gGlu on the alpha amino group of the N-terminal residue (Lys 1); disulfide bridge Cys2-Cys7; C-terminal amide, modifications are with respect to human amylin; also called compound 34) [N^α1-[(4S)-4-carboxy-4-(19-carboxynonadecanoylamino)butanoyl]-[Arg17,Pro21,Pro27,Lys35]-h-amylin]
21.6 | 67 | 0.322 | 13.9 | {C20 diacid-γGlu}-KCNTATCATQRLANFLRHSSPNFGAIPSSTNVGPETY-NH2 (disulfide 2-7; SMILES CC[C@H](C)[C@H](NC(=O)[C@H](C)NC(=O)CNC(=O)[C@H](Cc1ccccc1)NC(=O)[C@H](CC(N)=O)NC(=O)[C@@H]1CCCN1C(=O)[C@H](CO)NC(=O)[C@H](CO)NC(=O)[C@H](Cc1c[nH]cn1)NC(=O)[C@H](CCCNC(=N)N)NC(=O)[C@H](CC(C)C)NC(=O)[C@H](Cc1ccccc1)NC(=O)[C@H](CC(N)=O)NC(=O)[C@H](C)NC(=O)[C@H](CC(C)C)NC(=O)[C@H](CCCNC(=N)N)NC(=O)[C@H](CCC(N)=O)NC(=O)[C@@H](NC(=O)[C@H](C)NC(=O)[C@@H]1CSSC[C@H](NC(=O)[C@H](CCCCN)NC(=O)CC[C@H](NC(=O)CCCCCCCCCCCCCCCCCCC(=O)O)C(=O)O)C(=O)N[C@@H](CC(N)=O)C(=O)N[C@@H]([C@@H](C)O)C(=O)N[C@@H](C)C(=O)N[C@@H]([C@@H](C)O)C(=O)N1)[C@@H](C)O)C(=O)N1CCC[C@H]1C(=O)N[C@@H](CO)C(=O)N[C@@H](CO)C(=O)N[C@H](C(=O)N[C@@H](CC(N)=O)C(=O)N[C@H](C(=O)NCC(=O)N1CCC[C@H]1C(=O)N[C@@H](CCC(=O)O)C(=O)N[C@H](C(=O)N[C@@H](Cc1ccc(O)cc1)C(N)=O)[C@@H](C)O)C(C)C)[C@@H](C)O, modifications are with respect to human amylin; also called compound 29)
